Assay results published in patent publication US20130224224A1 (Boehringer Ingelheim, published 2013).
Read-outs that look alike come from different tables or passages of the source.

Tests used:
cynomolgus CX3CR1 [1] = target: T1, cynomolgus CX3CR1 (cynomolgus, UniProt P49238 1-355 (human entry)); test: A647-fractalkine competition FACS, HEK293T cynomolgus CX3CR1
T1 construct: transiently expressed on HEK293T cells; also called cyCX3CR1; cyno CX3CR1
T1 chain: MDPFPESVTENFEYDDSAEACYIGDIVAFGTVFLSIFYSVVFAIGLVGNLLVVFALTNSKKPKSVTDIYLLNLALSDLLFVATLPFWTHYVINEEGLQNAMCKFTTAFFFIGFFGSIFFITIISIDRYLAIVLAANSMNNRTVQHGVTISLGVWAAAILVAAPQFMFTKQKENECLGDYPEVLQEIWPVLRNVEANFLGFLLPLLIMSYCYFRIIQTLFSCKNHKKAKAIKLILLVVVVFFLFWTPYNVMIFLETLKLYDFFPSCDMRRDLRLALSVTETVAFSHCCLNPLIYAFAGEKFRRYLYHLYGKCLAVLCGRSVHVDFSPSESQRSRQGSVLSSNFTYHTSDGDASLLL
Excerpt: (§1) Periplasmic extracts were screened in a human CX3CR1/human Fractalkine FACS competition assay to assess the blocking capacity of the expressed VHHs. Human CX3CR1 was presented on CHO cells overexpressing CX3CR1. Both a setup using cells harvested from an actively growing culture and a setup using frozen cells was used. As a detection reagent labeled fractalkine was used (R&D Systems, Minneapolis, Minn., USA) labeled with alexa647 (A647-Fractalkine) at a degree of labeling of 1. To setup the assay, first a titration series of the labeled fractalkine was performed on the CHO-huCX3CR1 cells in order to determine the EC50 value for binding. Initially screening was performed at a higher concentration of fractalkine (3 nM) to increase the assay robustness. To increase the sensitivity of the screening to a maximum, the EC30 concentration (1 nM) was chosen for subsequent screening. In brief 50 μl of periplasmic extract was added to 6 nM labeled fractalkine (50 μ;) and 200 000 CHO-huCX3CR1 cells. After one hour incubation at 4 C, cells were washed three times before read out was performed on a FACS Array (Becton Dickinson). First a gate was set on the intact cells as determined from the scatter profile. Next, dead cells were gated out by their fluorescence profile from the PI stain (Sigma, St Louis, US). The fluorescence profile from the alexa647 label was determined for each sample and used for calculation of blocking capacity. As controls, conditions were taken along where there was no VHH present in the peri extract or a known irrelevant VHH and samples were included where excess cold fractalkine was included. For each sample the percentage block was determined using the control samples to determine the assay window.
(§2) For later identified VHHs, a human Fractalkine competition FACS was set up using human or cynomolgus CX3CR1 expressed in HEK293T cells. Both the human and the cynomolgus receptor was transiently transfected in HEK293T cells and transfections were matched by the binding of the labeled ligand, human fractalkine. The competition was evaluated using the EC30 concentration of fractalkine and as such obtained IC50 values are a good estimate of the Ki value, a measure for affinity (Table 22). The experiment was performed as described in Example 4.

cynomolgus CX3CR1 [2] = target: T1, cynomolgus CX3CR1; test: FACS binding, cynomolgus against human CX3CR1
Method: (§3) Initially, a FACS based binding setup was used to evaluate the cynomolgus cross reactivity. For this, the VHHs were incubated with the respective cells for 30 minutes at 4° C. followed by three wash steps and subsequently incubated with the detection reagents. As detection, a mouse anti-cmyc antibody (Serotec, MCA2200) followed by a goat anti-mouse antibody coupled to PE (Jackson 115-116-071) was used, each incubation for 30 minutes at 4° C., followed by three wash steps.

human CX3CR1 [3] = target: T2, human CX3CR1 (human, UniProt P49238 1-355); test: A647-fractalkine competition FACS, HEK293T human CX3CR1
T2 construct: overexpressed on CHO, BA/F3 or HEK293T cells; also called huCX3CR1; hCX3CR1
T2 sequence: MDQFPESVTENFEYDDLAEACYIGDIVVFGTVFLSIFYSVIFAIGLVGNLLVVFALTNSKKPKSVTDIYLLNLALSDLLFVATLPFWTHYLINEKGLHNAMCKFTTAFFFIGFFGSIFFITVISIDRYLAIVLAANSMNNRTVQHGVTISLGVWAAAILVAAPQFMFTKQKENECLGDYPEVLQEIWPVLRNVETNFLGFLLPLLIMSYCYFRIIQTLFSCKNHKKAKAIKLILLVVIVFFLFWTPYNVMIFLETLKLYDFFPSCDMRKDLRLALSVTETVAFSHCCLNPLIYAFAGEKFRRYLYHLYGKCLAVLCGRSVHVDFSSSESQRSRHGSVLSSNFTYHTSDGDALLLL
Excerpt: as §1, §2

human CX3CR1 [4] = target: T2, human CX3CR1; test: A647-fractalkine competition FACS, HEK293-huCX3CR1
Excerpt: as §1
(§4) The blocking capacity towards the ligand fractalkine of the VHHs was evaluated in a human CX3CR1 competition FACS as outlined in Example 4. Either CHO-huCX3CR1 cells, BA/F3-huCX3CR1 cells or transiently transfected HEK293T cells were used. The amount of labeled ligand used in the different competition setups was also varied. The IC₅₀ values for VHHs blocking the interaction of human fractalkine to human CX3CR1 are depicted in Table 19.

human CX3CR1 [5] = target: T2, human CX3CR1; test: cell-based or functional assay
human CX3CR1 [6] = target: T2, human CX3CR1; test: A647-fractalkine competition FACS, CHO-huCX3CR1
Excerpt: as §1, §4

human CX3CR1 [7] = target: T2, human CX3CR1; test: periplasmic extract, A647-fractalkine competition FACS, CHO-huCX3CR1
Method in brief: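 Periplasmic VHH extracts competed with Alexa647-fractalkine (EC30, 1 nM; 3 nM initially) for binding to live or frozen CHO cells overexpressing human CX3CR1, 1 h at 4 C. FACS read on intact, PI-negative cells; percent block derived using no-VHH, irrelevant-VHH and excess cold fractalkine controls.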

cynomolgus CX3CR1 [8] = target: T1, cynomolgus CX3CR1; test: A647-fractalkine competition FACS, cynomolgus against human CX3CR1
Excerpt: as §1, §2

human CX3CR1 [9] = target: T2, human CX3CR1; test: FACS binding on human CX3CR1 cells, anti-c-myc detection
Method: as §3

cynomolgus CX3CR1 [10] = target: T1, cynomolgus CX3CR1; test: FACS binding on cynomolgus CX3CR1 cells, anti-c-myc detection
Method: as §3

human CX3CR1 [11] = target: T2, human CX3CR1; test: A647-fractalkine competition FACS, BA/F3-huCX3CR1
Excerpt: as §1, §4

human CX3CR1 [12] = target: T2, human CX3CR1; test: cell-based or functional assay; remark: listed apart in the source
human CX3CR1 [13] = target: T2, human CX3CR1; test: A647-fractalkine competition FACS, CHO-huCX3CR1; remark: listed apart in the source
Excerpt: as §1
The inhibition of ligand binding to human CX3CR1 was investigated for the different formats as described in Example 4. For this characterization the BA/F3-huCX3CR1 cell line was used showing stable expression of the human CX3CR1 receptor. The alexa647 labeled ligand fractalkine was used at its EC30 concentration and thereby obtained IC50 values are reflective of the Ki values.

cynomolgus CX3CR1 [14] = target: T1, cynomolgus CX3CR1; test: FACS binding, HEK293T cynomolgus CX3CR1
human CX3CR1 [15] = target: T2, human CX3CR1; test: FACS binding, HEK293T human CX3CR1
cynomolgus CX3CR1 [16] = target: T1, cynomolgus CX3CR1; test: FACS binding, cynomolgus against human CX3CR1

B1: CX3CR1BIIPMP54D5 (VHH)
VHH: EVQLVESGGGSVQAGESLRLSCAASGSIFSSNAMAWYRQAPPGKQRDLVALINSVGITKYADSVKGRFTISSDNAKNTVYLEMNSLKPEDTAVYYCTSDGRRGWDTRYWGQGTQVTVSS
notes: also called 54D05; CX3CR1BII54D5; not shown: C-terminal c-myc and His6 tags
Cynomolgus CX3CR1 [1]
  % block: 91%
  IC50: 64 nM
Cynomolgus CX3CR1 [2]
  ratio (cynomolgus/human EC50): 59.6
Human CX3CR1 [3]
  % block: 94%
  IC50: 5.3 nM
Human CX3CR1 [4]
  % block: 94%
  IC50: 5.3 nM
Human CX3CR1 [5]
  % block, fractalkine induced chemotaxis: 81%
  IC50, fractalkine induced chemotaxis: 70 nM
Human CX3CR1 [6]
  % block: 102%
  IC50: 2.7 nM
Human CX3CR1 [7]
  % block: 87.8%
Cynomolgus CX3CR1 [8]
  ratio (cynomolgus/human IC50): 12.2
Human CX3CR1 [9]
  EC50: 0.84 nM
Cynomolgus CX3CR1 [10]
  EC50: 50 nM
Human CX3CR1 [11]
  % block: 99%
  IC50: 5.5 nM

B2: CX3CR1BII009 (VHH)
chain: KVQLVESGGGLVQPGGSLRLSCATSGTIFSNNAMGWYRQAPGKKRDLVASISSSGSTNYADSVKGRFTVSRDNDKNTGYLQMNSLKPEDTGVYYCTLDARRGWNTAYWGQGAQVTVSSGGGGSGGGGSGGGGSGGGGSGGGGSGGGGSGGGGSEVQLVESGGGLVQAGGSLRLSCVASGRTFSSYAMGWFRQAPGKERAFVAGISGSASRKYYADSVKGRFTVSRDNARNTVYLQMNSLKPEDTAVYYCAASNSYPKVQFDYYGQGTQVTVSS
notes: expressed in E. coli as described for the monovalent VHHs
Human CX3CR1 [12]
  % block, fractalkine induced chemotaxis: 79%
  IC50, fractalkine induced chemotaxis: 20 nM
Human CX3CR1 [13]
  % block: 91%
  IC50: 0.7 nM
Cynomolgus CX3CR1 [14]
  EC50: 6.8 nM
Human CX3CR1 [15]
  EC50: 2 nM
Cynomolgus CX3CR1 [16]
  ratio (cynomolgus/human EC50): 3.3

B3: CX3CR1BII007 (VHH)
chain: EVQLVESGGGLVQAGGSLRLSCVASGRTFSSYAMGWFRQAPGKERAFVAGISGSASRKYYADSVKGRFTVSRDNARNTVYLQMNSLKPEDTAVYYCAASNSYPKVQFDYYGQGTQVTVSSGGGGSGGGGSGGGGSGGGGSGGGGSGGGGSGGGGSKVQLVESGGGLVQPGGSLRLSCATSGTIFSNNAMGWYRQAPGKKRDLVASISSSGSTNYADSVKGRFTVSRDNDKNTGYLQMNSLKPEDTGVYYCTLDARRGWNTAYWGQGAQVTVSS
notes: expressed in E. coli as described for the monovalent VHHs (c-myc, His6 tags there)
Human CX3CR1 [12]
  % block, fractalkine induced chemotaxis: 101%
  IC50, fractalkine induced chemotaxis: 4 nM
Human CX3CR1 [13]
  % block: 100%
  IC50: 0.38 nM
Cynomolgus CX3CR1 [14]
  EC50: 48 nM
Human CX3CR1 [15]
  EC50: 0.31 nM
Cynomolgus CX3CR1 [16]
  ratio (cynomolgus/human EC50): 154
